We go through seven molecules from US20240353401, “Compositions and methods for detecting SARS-CoV-2 spike protein” (UNICORNFISH PTY LTD AS TRUSTEE FOR RCX UNIT TRUST, published 2024).

One data set deals with SARS-CoV-2 spike protein (SARS-CoV-2, UniProt P0DTC2 P0DTC2:14-1213). The data set is described as follows: cell-based or functional assay.
In another data set the target is HCoV-NL63 spike protein (Human coronavirus NL63, UniProt Q6Q1S2 Q6Q1S2:19-1296).
The target in another data set is HCoV-229E spike protein (Human coronavirus 229E, UniProt P15423 P15423:16-1115).
Chain of HCoV-229E spike protein (P15423 16-1115, one chain of several): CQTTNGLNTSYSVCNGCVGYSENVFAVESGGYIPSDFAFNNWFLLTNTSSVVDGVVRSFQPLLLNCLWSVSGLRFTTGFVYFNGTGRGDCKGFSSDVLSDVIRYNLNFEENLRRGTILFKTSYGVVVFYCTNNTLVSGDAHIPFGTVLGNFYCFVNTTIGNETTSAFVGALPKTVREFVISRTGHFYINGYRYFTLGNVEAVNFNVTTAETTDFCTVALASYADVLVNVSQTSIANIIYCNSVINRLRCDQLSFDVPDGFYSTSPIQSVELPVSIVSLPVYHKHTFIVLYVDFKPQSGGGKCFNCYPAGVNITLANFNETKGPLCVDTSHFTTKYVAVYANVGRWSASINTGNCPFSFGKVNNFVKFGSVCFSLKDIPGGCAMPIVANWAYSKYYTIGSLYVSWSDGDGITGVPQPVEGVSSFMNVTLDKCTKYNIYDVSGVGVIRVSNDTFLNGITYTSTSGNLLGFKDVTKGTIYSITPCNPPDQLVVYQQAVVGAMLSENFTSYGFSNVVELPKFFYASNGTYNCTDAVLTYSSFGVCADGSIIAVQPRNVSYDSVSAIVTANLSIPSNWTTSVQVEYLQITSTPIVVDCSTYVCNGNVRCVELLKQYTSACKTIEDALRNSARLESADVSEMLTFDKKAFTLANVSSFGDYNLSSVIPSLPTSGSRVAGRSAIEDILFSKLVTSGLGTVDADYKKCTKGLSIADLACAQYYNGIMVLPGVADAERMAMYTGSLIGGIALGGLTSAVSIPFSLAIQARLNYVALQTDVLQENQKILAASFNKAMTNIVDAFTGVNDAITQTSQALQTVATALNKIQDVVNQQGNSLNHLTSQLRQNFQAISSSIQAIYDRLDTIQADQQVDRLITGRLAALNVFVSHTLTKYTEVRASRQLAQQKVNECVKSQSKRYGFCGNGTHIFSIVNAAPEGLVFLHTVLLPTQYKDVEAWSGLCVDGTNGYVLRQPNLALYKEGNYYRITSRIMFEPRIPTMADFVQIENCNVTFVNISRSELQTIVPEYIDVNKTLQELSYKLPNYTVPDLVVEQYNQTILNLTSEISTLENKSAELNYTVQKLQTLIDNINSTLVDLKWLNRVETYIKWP

Chain of HCoV-NL63 spike protein (Q6Q1S2 19-1296, one chain of several): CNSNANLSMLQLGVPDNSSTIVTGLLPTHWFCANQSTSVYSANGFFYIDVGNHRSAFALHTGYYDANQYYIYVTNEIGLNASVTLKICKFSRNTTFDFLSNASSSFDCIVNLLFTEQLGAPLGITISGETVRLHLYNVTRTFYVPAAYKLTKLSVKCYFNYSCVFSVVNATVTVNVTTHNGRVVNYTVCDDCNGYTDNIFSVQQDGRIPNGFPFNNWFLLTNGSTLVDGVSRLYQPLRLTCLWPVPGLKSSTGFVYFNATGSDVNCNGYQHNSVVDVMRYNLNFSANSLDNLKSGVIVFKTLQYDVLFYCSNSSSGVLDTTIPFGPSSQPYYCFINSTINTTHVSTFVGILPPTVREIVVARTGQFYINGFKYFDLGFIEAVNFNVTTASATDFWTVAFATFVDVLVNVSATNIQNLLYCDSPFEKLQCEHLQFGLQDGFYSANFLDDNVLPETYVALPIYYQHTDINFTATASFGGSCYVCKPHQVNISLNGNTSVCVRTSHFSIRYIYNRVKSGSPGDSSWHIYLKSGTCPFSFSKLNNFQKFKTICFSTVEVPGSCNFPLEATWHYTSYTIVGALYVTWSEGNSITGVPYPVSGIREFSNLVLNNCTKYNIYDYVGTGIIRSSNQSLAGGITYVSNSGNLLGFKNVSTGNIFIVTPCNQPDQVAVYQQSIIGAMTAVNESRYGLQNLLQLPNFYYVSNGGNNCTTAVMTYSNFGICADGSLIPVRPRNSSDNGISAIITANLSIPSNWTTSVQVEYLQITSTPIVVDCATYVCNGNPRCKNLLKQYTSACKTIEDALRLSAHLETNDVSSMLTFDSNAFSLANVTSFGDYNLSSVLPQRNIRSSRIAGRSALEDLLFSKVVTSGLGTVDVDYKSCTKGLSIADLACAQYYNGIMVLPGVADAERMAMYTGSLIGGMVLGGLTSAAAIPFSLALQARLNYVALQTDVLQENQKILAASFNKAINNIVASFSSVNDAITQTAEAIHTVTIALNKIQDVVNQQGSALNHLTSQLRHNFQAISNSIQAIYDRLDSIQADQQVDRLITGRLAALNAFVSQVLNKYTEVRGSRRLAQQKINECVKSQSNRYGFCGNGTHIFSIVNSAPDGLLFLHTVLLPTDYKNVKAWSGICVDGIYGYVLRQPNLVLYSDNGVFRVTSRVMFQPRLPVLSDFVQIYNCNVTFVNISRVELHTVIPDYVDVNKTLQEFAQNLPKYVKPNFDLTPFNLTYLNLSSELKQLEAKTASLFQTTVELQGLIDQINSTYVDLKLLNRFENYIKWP

B1: DNA aptamer 2 (ssDNA)
DNA: ATCCAGAGTGACGCAGCATCGAGTGGTGGGCTGGTCGGGTTTGGATTCCCTTAGATGCTGGACACGGTGGCTTAGT
Regarding B1, the activity in the data set with SARS-CoV-2 spike protein turned out to be 8 nM.

B2: DNA aptamer 4 (ssDNA)
DNA: ATCCAGAGTGACGCAGCATTTCATCGGGTCCAAAAGGGGCTGCTCGGGATTGCGGATATGGACACGGTGGCTTAGT
As for B2, the activity with SARS-CoV-2 spike protein amounted to 9 nM.

B3: DNA aptamer 8 (ssDNA)
DNA: ATCCAGAGTGACGCAGCATTTCATCGGGTCCAAAAGGGGCTGCTCGGGATTGCGGATATGGACACGT
B3 registered an activity with SARS-CoV-2 spike protein of 8.9 nM.

B4: DNA aptamer 7 (ssDNA)
DNA: CAGCACCGACCTTGTGCTTTGGGAGTGCTGGTCCAAGGGCGTTAATGGACA
As for B4, the binding result in the data set with HCoV-NL63 spike protein and with HCoV-229E spike protein was “no binding” each time.

B5: DNA aptamer 5 (ssDNA)
DNA: ATCCAGAGTGACGCAGCAGGACTGCTTAGGATTGCGAAGCTGAGGAGCTCCCCCGCCTTGGACACGGTGGCTTAGT
The molecule B5 returned an activity with SARS-CoV-2 spike protein of 9.7 nM.

B6: DNA aptamer 6 (ssDNA)
DNA: ATCCAGAGTGACGCAGCAGTAGGGGGATTGGCTCCAGGGCCTGGCTGACGGTTGCACGTGGACACGGTGGCTTAGT
On to B6, for which, in the data set with SARS-CoV-2 spike protein, the activity is 7.8 nM.

B7: DNA aptamer 3 (ssDNA)
DNA: ATCCAGAGTGACGCAGCACTGCGTAGGCGCGGCCAATGTGTAGGATTGCTCAGGTCTGCTGGACACGGTGGCTTAGT
In the data set with SARS-CoV-2 spike protein, B7 showed an activity of 10 nM.
